Paper PMC6411343 (International Journal of Oncology, 2019)

B1: [^125I]I-HPEM-G3-GGGC (DARPin G3-GGGC, site-specifically labelled with [^125I]I-iodo-[(4-hydroxyphenyl)ethyl]maleimide) (designed binder)
chain: DLGKKLLEAARAGQDDEVRILMANGADVNAKDEYGLTPLYLATAHGHLEIVEVLLKNGADVNAVDAIGFTPLHLAAFIGHLEIAEVLLKHGADVNAQDKFGKTAFDISIGNGNEDLAEILQKLNGGGGC
modifications: [^125I]I-HPEM ([^125I]iodo-[(4-hydroxyphenyl)ethyl]maleimide) on the C-terminal cysteine (maleimide-cysteine coupling)
B2: [^125I]I-G3-GGGC-IAA (DARPin G3-GGGC, directly radioiodinated, terminal cysteine capped with iodoacetamide) (designed binder)
chain: B1 chain
modifications: iodine-125 by direct iodination; terminal cysteine capped by alkylation with iodoacetamide (IAA)
B3: [^125I]I-G3-H6 (DARPin G3-H6, directly radioiodinated with iodine-125) (designed binder)
chain: MDLGKKLLEAARAGQDDEVRILMANGADVNAKDEYGLTPLYLATAHGHLEIVEVLLKNGADVNAVDAIGFTPLHLAAFIGHLEIAEVLLKHGADVNAQDKFGKTAFDISIGNGNEDLAEILQKLNGS
modifications: iodine-125 on tyrosines (direct chloramine-T radioiodination, random attachment; number and position not controlled)

Target: human epidermal growth factor receptor 2 (HER2) (human (endogenous in SKOV3, BT474, …, UniProt P04626 23-1255))
Test: radioligand binding

Row | Binder | KD1 (high affinity interaction, 1:2 interaction model) | KD2 (low affinity interaction, 1:2 interaction model)
1 | B1 | 99 pM | 3.5 nM
2 | B2 | 146 pM | 1.5 nM
3 | B3 | 163 pM | 3.9 nM
